pKd: −log10 of the molar value.
Legend:
[1] = target: human IL21R-Fc (bivalent) (human) (UniProt Q9HBE5); test: BLI; ForteBio Octet RED384/HTX, 27 C; 10 mM Tris pH 7.5, 150 mM NaCl, 1 mM CaCl2, BSA, 0.13% Triton X-100; receptor reagent bivalent IL21R-Fc (how it was held is not told); samples in 3-fold dilutions, top 10 nM for wild-type IL21 fusions, 300 nM for mutein fusions; association 20 min, dissociation 1.5 h; global 1:1 fit
[2] = target: cyno IL21R(1-232)-FLAG-His (cynomolgus monkey); test: BLI; ForteBio Octet RED384/HTX, 27 C; 10 mM Tris pH 7.5, 150 mM NaCl, 1 mM CaCl2, BSA, 0.13% Triton X-100; biotinylated human or cyno IL21R(1-232)-FLAG-His captured on streptavidin SAX tips to 2.0 nm; samples in 3-fold dilutions, top 300 nM for mutein fusions; association 20 min, dissociation 1.5 h; global 1:1 fit

Sequence of UniProt Q9HBE5 (Q9HBE5 20-232): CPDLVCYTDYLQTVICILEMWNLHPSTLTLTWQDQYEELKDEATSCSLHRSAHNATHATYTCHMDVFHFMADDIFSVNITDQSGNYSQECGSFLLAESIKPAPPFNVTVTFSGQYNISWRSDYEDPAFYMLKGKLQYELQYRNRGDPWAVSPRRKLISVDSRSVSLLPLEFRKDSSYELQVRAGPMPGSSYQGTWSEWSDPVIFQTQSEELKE

In the case of anti-PD-1 mAb x IL-21 I8S, homodimer, the pKd [1] was 8.40.
Substance anti-PD-1 mAb x IL-21 K72D, homodimer has a pKd [1] of 9.62.
anti-PD-1 mAb x IL-21 K72G, homodimer gave a pKd [1] of 9.60.
anti-PD-1 mAb x IL-21 K72P, homodimer was tested, and the pKd [1] was 8.05.
Substance anti-PD-1 mAb x IL-21 K73A, homodimer has a pKd [1] of 10.28.
anti-PD-1 mAb x IL-21 K73D, homodimer showed a pKd [1] of 9.36.
With anti-PD-1 mAb x IL-21 K73E, homodimer the pKd [1] was 10.14.
For anti-PD-1 mAb x IL-21 K73G, homodimer, the pKd [1] was 9.60.
Work on anti-PD-1 mAb x IL-21 K73H, homodimer yielded a pKd [1] of 9.72.
Work on anti-PD-1 mAb x IL-21 K73I, homodimer yielded a pKd [1] of 9.77.
anti-PD-1 mAb x IL-21 K73P, homodimer showed a pKd [1] of 8.70.
In the case of anti-PD-1 mAb x IL-21 K73Q, homodimer, the pKd [1] was 10.16.
Substance anti-PD-1 mAb x IL-21 K73S, homodimer has a pKd [1] of 9.77.
Work on anti-PD-1 mAb x IL-21 K75G, homodimer yielded a pKd [1] of 9.80.
anti-PD-1 mAb x IL-21 K75P, homodimer gave a pKd [1] of 9.00.
“anti-PD-1 mAb x IL-21 K77G, homodimer (from UniProt Q9HBE4 25-162)” gave a pKd [1] of 9.18.
Substance anti-PD-1 mAb x IL-21 L13D, homodimer has a pKd [1] of 7.96.
anti-PD-1 mAb x IL-21 P79D, homodimer was tested, and the pKd [1] was 9.49.
With anti-PD-1 mAb x IL-21 Q12A, homodimer the pKd [1] was 9.64.
anti-PD-1 mAb x IL-21 Q12D, homodimer showed a pKd [1] of 9.38.
Substance anti-PD-1 mAb x IL-21 Q12E, homodimer has a pKd [1] of 10.51.
anti-PD-1 mAb x IL-21 Q12N, homodimer showed a pKd [1] of 9.42.
anti-PD-1 mAb x IL-21 Q12S, homodimer was tested, and the pKd [1] was 9.49.
With anti-PD-1 mAb x IL-21 Q12T, homodimer the pKd [1] was greater than 9.59.
For anti-PD-1 mAb x IL-21 Q12V, homodimer, the pKd [1] was greater than 8.66.
Work on anti-PD-1 mAb x IL-21 Q19D, homodimer yielded a pKd [1] of 9.77.
With anti-PD-1 mAb x IL-21 R5A, homodimer the pKd [1] was 9.62.
anti-PD-1 mAb x IL-21 R5Q, homodimer gave a pKd [1] of 8.68.
For anti-PD-1 mAb x IL-21 R65G, homodimer, the pKd [1] was 9.89.
In the case of anti-PD-1 mAb x IL-21 R65P, homodimer, the pKd [1] was 9.05.
With anti-PD-1 mAb x IL-21 R76D, homodimer the pKd [1] was 7.92.
Substance anti-PD-1 mAb x IL-21 R76G, homodimer has a pKd [1] of 8.70.
Work on anti-PD-1 mAb x IL-21 R76H, homodimer yielded a pKd [1] of 8.70.
Substance anti-PD-1 mAb x IL-21 R76K, homodimer has a pKd [1] of 9.70.
anti-PD-1 mAb x IL-21 R76L, homodimer gave a pKd [1] of 9.70.
anti-PD-1 mAb x IL-21 R76M, homodimer gave a pKd [1] of 9.22.
anti-PD-1 mAb x IL-21 R76N, homodimer showed a pKd [1] of 7.82.
anti-PD-1 mAb x IL-21 R76P, homodimer was tested, and the pKd [1] was 9.40.
“recombinant human IL-21 (free wild-type cytokine) (from UniProt Q9HBE4 25-162) (ligand)” was tested, and the pKd [2] was 10.36.

— publication PMC7225340
